{"source": "patent US12338277", "assay_in_all_cases": "cell-based or functional assay", "key": {"[1]": {"molecular_target": "HIV-1 Env of pseudovirus CNE17 (HIV-1)"}, "[2]": {"molecular_target": "HIV-1 Env of pseudovirus X1193_c1 (HIV-1)"}, "[3]": {"molecular_target": "HIV-1 envelope of pseudovirus ZM109F.PB4 (HIV-1)"}, "[4]": {"molecular_target": "HIV-1 Env of pseudovirus Ce703010054_2A2 (HIV-1)"}, "[5]": {"molecular_target": "HIV-1 envelope spike of pseudovirus CAAN5342.A2 (HIV-1)"}, "[6]": {"molecular_target": "HIV-1 Env of pseudovirus CAAN5342.A2 (HIV-1)"}, "[7]": {"molecular_target": "HIV-1 Env of pseudovirus TRJO4551.58 (HIV-1)"}, "[8]": {"molecular_target": "HIV-1 envelope of pseudovirus Ce2010_F5 (HIV-1)"}, "[9]": {"molecular_target": "HIV-1 envelope of pseudovirus HIV-0013095-2.11 (HIV-1)"}, "[10]": {"molecular_target": "HIV-1 Env of pseudovirus Q842.d12 (HIV-1)"}, "[11]": {"molecular_target": "HIV-1 Env of pseudovirus AC10.0.29 (HIV-1)"}, "[12]": {"molecular_target": "HIV-1 Env of pseudovirus 6540.v4.c1 (HIV-1)"}, "[13]": {"molecular_target": "HIV-1 Env of pseudovirus 191084 B7-19 (HIV-1)"}, "[14]": {"molecular_target": "HIV-1 Env of pseudovirus 231965.c01 (HIV-1)"}, "[15]": {"molecular_target": "HIV-1 envelope of pseudovirus 231965.c01 (HIV-1)"}, "[16]": {"molecular_target": "HIV-1 Env of pseudovirus QH0692.42 (HIV-1)"}, "[17]": {"molecular_target": "HIV-1 envelope of pseudovirus CAP210.2.00.E8 (HIV-1)"}, "[18]": {"molecular_target": "HIV-1 Env of pseudovirus R2184.c04 (HIV-1)"}, "[19]": {"molecular_target": "HIV-1 Env of pseudovirus ZM135M.PL10a (HIV-1)"}, "[20]": {"molecular_target": "HIV-1 envelope of pseudovirus Q769.d22 (HIV-1)"}, "[21]": {"molecular_target": "HIV-1 Env of pseudovirus Ce0682_E4 (HIV-1)"}, "[22]": {"molecular_target": "HIV-1 envelope of pseudovirus HIV-001428-2.42 (HIV-1)"}, "[23]": {"molecular_target": "HIV-1 envelope of pseudovirus 3817.v2.c59 (HIV-1)"}, "[24]": {"molecular_target": "HIV-1 envelope of pseudovirus Q23.17 (HIV-1)"}, "[25]": {"molecular_target": "HIV-1 Env of pseudovirus PVO.4 (HIV-1)"}, "[26]": {"molecular_target": "HIV-1 Env of pseudovirus X1632_S2_B10 (HIV-1)"}, "[27]": {"molecular_target": "HIV-1 envelope of pseudovirus Ce704809221_1B3 (HIV-1)"}, "[28]": {"molecular_target": "HIV-1 envelope of pseudovirus BJOX015000.11.5 (HIV-1)"}, "[29]": {"molecular_target": "HIV-1 Env of pseudovirus Du422.1 (HIV-1)"}, "[30]": {"molecular_target": "HIV-1 Env of pseudovirus 620345.c01 (HIV-1)"}, "[31]": {"molecular_target": "HIV-1 Env of pseudovirus BJOX015000.11.5 (HIV-1)"}, "[32]": {"molecular_target": "HIV-1 Env of pseudovirus 6545.v4.c1 (HIV-1)"}, "[33]": {"molecular_target": "HIV-1 envelope of pseudovirus 0260.v5.c36 (HIV-1)"}, "[34]": {"molecular_target": "HIV-1 envelope of pseudovirus T278-50 (HIV-1)"}, "[35]": {"molecular_target": "HIV-1 envelope of pseudovirus 191821_E6_1 (HIV-1)"}, "[36]": {"molecular_target": "HIV-1 Env of pseudovirus WEAU_d15_410_787 (HIV-1)"}, "[37]": {"molecular_target": "HIV-1 Env of pseudovirus 263-8 (HIV-1)"}, "[38]": {"molecular_target": "HIV-1 envelope of pseudovirus R1166.c01 (HIV-1)"}, "[39]": {"molecular_target": "HIV-1 Env of pseudovirus BF1266.431a (HIV-1)"}, "[40]": {"molecular_target": "HIV-1 Env of pseudovirus C3347.c11 (HIV-1)"}, "[41]": {"molecular_target": "HIV-1 envelope of pseudovirus PVO.4 (HIV-1)"}, "[42]": {"molecular_target": "HIV-1 envelope of pseudovirus T251-18 (HIV-1)"}, "[43]": {"molecular_target": "HIV-1 envelope of pseudovirus 246F C1G (HIV-1)"}, "[44]": {"molecular_target": "HIV-1 Env of pseudovirus CNE5 (HIV-1)"}, "[45]": {"molecular_target": "HIV-1 envelope of pseudovirus Q842.d12 (HIV-1)"}, "[46]": {"molecular_target": "HIV-1 Env of pseudovirus 6240_08_TA5_4622 (HIV-1)"}, "[47]": {"molecular_target": "HIV-1 envelope spike of pseudovirus SC422661.8 (HIV-1)"}, "[48]": {"molecular_target": "HIV-1 envelope of pseudovirus 928-28 (HIV-1)"}, "[49]": {"molecular_target": "HIV-1 envelope of pseudovirus 6240_08_TA5_4622 (HIV-1)"}, "[50]": {"molecular_target": "HIV-1 envelope of pseudovirus CNE21 (HIV-1)"}}, "data": [{"substance": "10-996 (antibody)", "values": [{"measurement": "IC80 (TZM-bl neutralization)", "setting": "[1]", "value": 24.7, "unit": "mg/L"}, {"measurement": "IC80 (TZM-bl neutralization)", "setting": "[2]", "value": 0.482, "unit": "mg/L"}, {"measurement": "IC50 (TZM-bl neutralization)", "setting": "[3]", "value": "> 50", "unit": "mg/L"}, {"measurement": "IC80 (TZM-bl neutralization)", "setting": "[4]", "value": "> 50", "unit": "mg/L"}, {"measurement": "IC50 (TZM-bl neutralization assay)", "setting": "[5]", "value": 0.007, "unit": "mg/L"}, {"measurement": "IC80 (TZM-bl neutralization assay)", "setting": "[5]", "value": 0.06, "unit": "mg/L"}, {"measurement": "IC80 (TZM-bl neutralization)", "setting": "[6]", "value": 0.079, "unit": "mg/L"}, {"measurement": "IC80 (TZM-bl neutralization)", "setting": "[7]", "value": 7.27, "unit": "mg/L"}, {"measurement": "IC50 (TZM-bl neutralization)", "setting": "[8]", "value": "> 50", "unit": "mg/L"}, {"measurement": "IC50 (TZM-bl neutralization)", "setting": "[9]", "value": 31.5, "unit": "mg/L"}, {"measurement": "IC80 (TZM-bl neutralization)", "setting": "[10]", "value": "> 50", "unit": "mg/L"}, {"measurement": "IC80 (TZM-bl neutralization)", "setting": "[11]", "value": 0.25, "unit": "mg/L"}, {"measurement": "IC80 (TZM-bl neutralization)", "setting": "[12]", "value": "> 50", "unit": "mg/L"}, {"measurement": "IC80 (TZM-bl neutralization)", "setting": "[13]", "value": 0.144, "unit": "mg/L"}, {"measurement": "IC80 (TZM-bl neutralization)", "setting": "[14]", "value": "> 50", "unit": "mg/L"}, {"measurement": "IC50 (TZM-bl neutralization)", "setting": "[15]", "value": "> 50", "unit": "mg/L"}, {"measurement": "IC80 (TZM-bl neutralization)", "setting": "[16]", "value": 1.85, "unit": "mg/L"}, {"measurement": "IC50 (TZM-bl neutralization)", "setting": "[17]", "value": 24.8, "unit": "mg/L"}, {"measurement": "IC80 (TZM-bl neutralization)", "setting": "[18]", "value": "> 50", "unit": "mg/L"}, {"measurement": "IC80 (TZM-bl neutralization)", "setting": "[19]", "value": 0.553, "unit": "mg/L"}, {"measurement": "IC50 (TZM-bl neutralization)", "setting": "[20]", "value": "> 50", "unit": "mg/L"}, {"measurement": "IC80 (TZM-bl neutralization)", "setting": "[21]", "value": "> 50", "unit": "mg/L"}, {"measurement": "IC50 (TZM-bl neutralization)", "setting": "[22]", "value": 0.04, "unit": "mg/L"}, {"measurement": "IC50 (TZM-bl neutralization)", "setting": "[23]", "value": 8.15, "unit": "mg/L"}, {"measurement": "IC50 (TZM-bl neutralization)", "setting": "[24]", "value": 0.008, "unit": "mg/L"}, {"measurement": "IC80 (TZM-bl neutralization)", "setting": "[25]", "value": 0.952, "unit": "mg/L"}, {"measurement": "IC80 (TZM-bl neutralization)", "setting": "[26]", "value": "> 50", "unit": "mg/L"}, {"measurement": "IC50 (TZM-bl neutralization)", "setting": "[27]", "value": 0.243, "unit": "mg/L"}, {"measurement": "IC50 (TZM-bl neutralization)", "setting": "[28]", "value": "> 50", "unit": "mg/L"}, {"measurement": "IC80 (TZM-bl neutralization)", "setting": "[29]", "value": 0.215, "unit": "mg/L"}, {"measurement": "IC80 (TZM-bl neutralization)", "setting": "[30]", "value": "> 50", "unit": "mg/L"}, {"measurement": "IC80 (TZM-bl neutralization)", "setting": "[31]", "value": "> 50", "unit": "mg/L"}, {"measurement": "IC80 (TZM-bl neutralization)", "setting": "[32]", "value": "> 50", "unit": "mg/L"}, {"measurement": "IC50 (TZM-bl neutralization)", "setting": "[33]", "value": 0.16, "unit": "mg/L"}, {"measurement": "IC50 (TZM-bl neutralization)", "setting": "[34]", "value": 14, "unit": "mg/L"}, {"measurement": "IC50 (TZM-bl neutralization)", "setting": "[35]", "value": "> 50", "unit": "mg/L"}, {"measurement": "IC80 (TZM-bl neutralization)", "setting": "[36]", "value": 0.422, "unit": "mg/L"}, {"measurement": "IC80 (TZM-bl neutralization)", "setting": "[37]", "value": "> 50", "unit": "mg/L"}, {"measurement": "IC50 (TZM-bl neutralization)", "setting": "[38]", "value": "> 50", "unit": "mg/L"}, {"measurement": "IC80 (TZM-bl neutralization)", "setting": "[39]", "value": "> 50", "unit": "mg/L"}, {"measurement": "IC80 (TZM-bl neutralization)", "setting": "[40]", "value": "> 50", "unit": "mg/L"}, {"measurement": "IC50 (TZM-bl neutralization)", "setting": "[41]", "value": 0.186, "unit": "mg/L"}, {"measurement": "IC50 (TZM-bl neutralization)", "setting": "[42]", "value": 0.939, "unit": "mg/L"}, {"measurement": "IC50 (TZM-bl neutralization)", "setting": "[43]", "value": 0.092, "unit": "mg/L"}, {"measurement": "IC80 (TZM-bl neutralization)", "setting": "[44]", "value": "> 50", "unit": "mg/L"}, {"measurement": "IC50 (TZM-bl neutralization)", "setting": "[45]", "value": "> 50", "unit": "mg/L"}, {"measurement": "IC80 (TZM-bl neutralization)", "setting": "[46]", "value": 0.348, "unit": "mg/L"}, {"measurement": "IC50 (TZM-bl neutralization assay)", "setting": "[47]", "value": 0.255, "unit": "mg/L"}, {"measurement": "IC80 (TZM-bl neutralization assay)", "setting": "[47]", "value": 0.845, "unit": "mg/L"}, {"measurement": "IC50 (TZM-bl neutralization)", "setting": "[48]", "value": 1.33, "unit": "mg/L"}, {"measurement": "IC50 (TZM-bl neutralization)", "setting": "[49]", "value": 0.095, "unit": "mg/L"}, {"measurement": "IC50 (TZM-bl neutralization)", "setting": "[50]", "value": 0.086, "unit": "mg/L"}]}]}
